Assay: soluble on expression in E. coli; label from the status in PepcDB or PDB records

Which “soluble on expression in E. coli” value does the source give for “MAHHHHHHMEKVITMREIITNTRKIKLHENFLEDCNLKDIFYNGLETVNCGYNDYVNMKTWLFVLSEKMFRTDYEELAYVACDALKVLLCNSKFLNVIIFKLLRKKLEKEILKIMGICCLTVASRMQQINESTCFKVILELSNLKDKLNEFNIRQIEMDVFVTLAHSGFCFEKIITPVNELNQIMKFLETYENFFDNNFNTFKSSSNLMLKIIYCMVPVFNMNIYNYSIVNYALRLFIQDNDKYEFIFEKLKQNYQDKEIIHISNFQNHMHNIINAFKNTSIFSAKDSILNNQLDVQLFEEINKKIEAYYEQKHKT” here?
Its value is “not soluble”.

Which “soluble on expression in E. coli” value does the source give for “MSRFIPIELHHASRLLNHGPTVLITSFDEQSQRRNIMAAAWSMPVEFEPPRVAIVVDKSTWTRELIEHNGKFGIVIPGVAATNWTWAVGSVSGRDEDKFNCYGIPVVRGPVFGLPLVEEKCLAWMECRLLPATSAQEEYDTLFGEVVSAAADARVFVEGRWQFDDDKLNTLHHLGAGTFVTSGKRVTAG” here?
The value was “soluble”.

For “MVVEVDSMPAASSVKKPFGLRSKMGKWCCRCFPCYRESGKSNVGTSGDHDDSAMKTLRSKMGKWCHHCFPCCRGSGKSNVGASGDHDDSAMKTLRNKMGKWCCHCFPCCRGSGKSKVGAWGDYDDSAFMEPRYHVRGEDLDKLHRAAWWGKVPRKDLIVMLRDTDVNKKDKQKRTALHLASANGNSEVVKLLLDRRCQLNVLDNKKRTALIKVCSSQLYQHEAVQCQEDECALMLLEHGTDPNIPDEYGNTTLHYAIYNEDKLMAKALLLYGADIESKNKHGLTPLLLGVHEQKQQVVKFLIKKKANLNALDRYGRTALILAVCCGSASIVSLLLEQNIDVSSQDLSGQTAREYAVSSHHHVICQLLSDYKEKQMLKISSENSNPENVSRTRNK”, which “soluble on expression in E. coli” value is on record?
The value was “not soluble”.

Which “soluble on expression in E. coli” value does the source give for “CHAINAAGKKVLIVYAHQEPKSFNGSLKNVAVDELSRQGCTVTVSDLYAMNFEPRATDKDITGTLSNPEVFNYGVETHEAYKQRSLASDITDEQKKVREADLVIFQFPLYWFSVPAILKGWMDRVLCQGFAFDIPGFYDSGLLQGKLALLSVTTGGTAEMYTKTGVNGDSRYFLWPLQHGTLHFCGFKVLAPQISFAPEIASEEERKGMVAAWSQRLQTIWKEEPIPCTAHWHFGQ” here?
The value was “soluble”.

With “STLSRFAYNGKRCPSSYNILDNSKIISEECRKELTALLHHYYPIEIDPHRTVKEKLPHMVEWWTKAHNLLCQQKIQKFQIAQVVRESNAMLREGYKTFFNTLYHNNIPLFIFSAGIGDILEEIIRQMKVFHPNIHIVSNYMDFNEDGFLQGFKGQLIHTYNKNSSVCENCGYFQQLEGKTNVILLGDSIGDLTMADGVPGVQNILKIGFLNDKVEERRERYMDSYDIVLEKDETLDVVNGLLQHILCQGVQLEMQGP” as the sequence, how does the “soluble on expression in E. coli” value read?
The value was “soluble”.

Which “soluble on expression in E. coli” value does the source give for “MSEPPPPHSAPVPMVKTDFFAFSGPYLPEDAHGTSSPPEKQQQTRKRGRPTALELLTTRVEELEKENSSLRTFRTAAESRCRALESKQSELFQTVEQLKVVVAKLTNECSARVTSNLPAPRLFADVLKGQSAEKKAEIIAERREAAASISLFEKKTHFAVIENLPDDGSDSQSAKDKVFLDNLIAANPSLPVHIQTFRVKTRKPVLSRPTKIRFSSEADRNSFIFSFSKTLRSLPDRPTNLPRPIRCRRDMTNDVIYPERVES” here?
The value was “not soluble”.

With “MTITSGIDVGTGAIKVVVFEVDGDQERCLGKRVERVRQRDPLKLAGDIYDDLLRETGLARADVAYCATTGEGESLTFHTGHFYSMTTHARGAIYLNPGSRAVLDTGALHGRAIRMDERGKVLAYKMTSQCASGSGQFLENIARYLGIAQDEIGSLSQRADNPEKVSGICAVLAETDVINMVSRGISSPNILRGIHESMADRLAKLLKTLGSLDGTVQMTGGLALDAGLVEAMKDAVVKAKVDVAIESHPDAIYAGAIGAALWGAFRHKRLADMAHAA” as the sequence, how does the “soluble on expression in E. coli” value read?
The value was “not soluble”.

For “TVESNWGGAILIGSDFDTVSATANVPSASGGSSAAGTAWVGIDGDTCQTAILQTGFDWYGDGTYDAWYEWYPEVSDDFSGITISEGDSIQMSVTATSDTSGSATLENLTTGQKVSKSFSNESSGSLCRTNAEFIIEDFEECNSNGSDCEFVPFASFSPAVEFTDCSVTSDGESVSLDDAQITQVIINNQDVTDCSVSGTTVSCSYV”, which “soluble on expression in E. coli” value is on record?
The value was “soluble”.

With “GPGSMEPKRSGNMACVERERERDYWRHLERLNNQRCRIDNTIPVSCAYVRPIGSMRRNPARAEQVNRDNQKLVEKMVHIMNTRGGVDTSEPWRDYNKAINSQRRRNQEQANIARENAKLLDRLERTQPTYRSEKFEADRRRNEEFAARASRYPYQPMDRTRY” as the sequence, how does the “soluble on expression in E. coli” value read?
The value was “soluble”.

Which “soluble on expression in E. coli” value does the source give for “MGKKAHGGKMKPEIDENGTLLVPPPRTIANQDHFHRLNYLYQISAYQTRARQKARTDAHTPLARNYIKSMDLISKKTKTSLLPTIKRTICKKCHRLLWTPKKLEITSDGALSVMCGCGTVKRFNIGADPNYRTYSEREGNLLNS” here?
Its value is “soluble”.

For “MFLTKVSLLDHPESLPGYLSSLAIVEYLHEQPLEFRAPITVITGENGVGKSTLVEALAVGMRLNPSGGSRHANFGREGDIVSSLHQSLKLVRRENPRDAFFFRGETMYNVASYYEELMGEKNMHDLHKMSHGESVFAVIDRRFNNQGFFVLDEPEAGLSMLRQLELLGKLGNLARGGAQIIMATHSPILLAIPGAEILEITSSGVAKVNFEDAEAVRAAREFVADPRGTAAFLTAEEDHQ”, which “soluble on expression in E. coli” value is on record?
Its value is “soluble”.

Which “soluble on expression in E. coli” value does the source give for “GMMVPHLTTALTGPLLTLEKRLLDNMPRIEHWFRSQWQEYGAPFYASVDLRNAGFKLAPVDTNLFPGGFNNLNPDFLPLCIQAAMVAVEKICPDARRLLLIPENHTRNTFYLRNVHALTHILRQAGLEVRIGSIAPEITAPTFLETHDGHSILLEPVRRKANRLELDNFDSCAILLNNDLSGGIPDILQGLEQSLIPPLHAGWATRRKSNHFTAYDRVVEEFAPLIDIDPWLLNPYFDTCGGLDFHARLGEEQLAEKVDSLLAKIRRKYAEYGVKQEPFVIVKADAGTYGMGIMTVKSADDVRDLNRKQRNKMSVVKEGLKVSEVILQEGVYTFEHLKDAVAEPVIYMMDHFVVGGFYRVHTSRGADENLNAPGMHFEPLTFETPCSTPDCAGAPDAAPNRFYAYGVVARLALLAATIELQETDPDLLDERT” here?
Its value is “soluble”.

With “MAKKVKVITDPEVIKVMLEDTRRKILKLLRNKEMTISQLSEILGKTPQTIYHHIEKLKEAGLVEVKRTEMKGNLVEKYYGRTADVFYINLYLGDEELRYIARSRLKTKIDIFKRLGYQFEENELLNIMDRMSQKEFDATVRISKYIEEKEDALKDFSNEDIIHAIEWLSTAELARDEEYLELLKRLGSILKR” as the sequence, how does the “soluble on expression in E. coli” value read?
The value was “soluble”.

With “MTEPLFVITDRPISVEDVMKKVMRPEAGAVAVFAGTVREWTNGKRTLFLQYEAYVSMAEKMLAQIGAEIAEKWPGAKTAITHRIGRLEIGDIAVVIAVSSPHRAEAYEANRYAIERIKQIVPIWKKEQWEDGSAWVGDQLETTAYPSGKPEVSEE” as the sequence, how does the “soluble on expression in E. coli” value read?
The value was “soluble”.

Which “soluble on expression in E. coli” value does the source give for “MGKGKNKMHEPKNGRPQRGANGHSSRQNHRRMEMKYDNSEKMKFPVKLAMWDFDHCDPKRCSGKKLERLGLIKSLRVGQKFQGIVVSPNGKGVVCPDDLEIVEQHGASVVECSWARLEEVPFNKIGGKHERLLPYLVAANQVNYGRPWRLNCVEALAACFAIVGRMDWASELLSHFSWGMGFLELNKELLEIYQQCTDCDSVKRAEEEWLQKLEKETQERKSRAKEEDIWMMGNINRRGNGSQSDTSESEENSEQSDLEGNNQCIEYDSLGNAIRIDNMKSREAQSEESEDEESGSKENGEPLSYDPLGNLIR” here?
Its value is “not soluble”.

Which “soluble on expression in E. coli” value does the source give for “MEYKKILIRLLIAFAVLFSADFTYQSVEQTHQSHAAVNYYSKNQCTWWAFKRRAQVGKPVSNRWGNAKNWYYNARKSKYATGRTPRKFAVMQSTAGYYGHVAVVEQVYKNGSIKVSEYNFYRPLKYNTRVLSKKAARNFNYIYLEHHHHHH” here?
Its value is “not soluble”.

With “MSLTTMVPTVMNTPTRIEAGRQKFLIFDAPSQENLPAYIEEMRAYEVTDLVRTCERTYDDKTVLASGIRPHELIFPDGEAPPDDVIDEWLTLCNAVSQQRGAIAIHCVAGLGRAPVLVAIALIEKGMDPMDAIMFIRERRKGAINRRQLQFLKGYKRRSNYKEGHHHHHH” as the sequence, how does the “soluble on expression in E. coli” value read?
Its value is “soluble”.

Reference: the DeepSol protein solubility set
